From patent publication US20170016905A1 (VAR2 PHARMACEUTICALS, published 2017)

B1: DBL2X-DBL4ε (3D7, Baculo) (other)
chain: LTNCYKCDKCKSEQSKKNNKNWIWKKSSGKEGGLQKEYANTIGLPPRTQSLCLVVCLDEKGKKTQELKNIRTNSELLKEWIIAAFHEGKNLKPSHEKKNDDNGKKLCKALEYSFADYGDLIKGTSIWDNEYTKDLELNLQKIFGKLFRKYIKKNNTAEQDTSYSSLDELRESWWNTNKKYIWLAMKHGAGMNSTTCCGDGSVTGSGSSCDDIPTIDLIPQYLRFLQEWVEHFCKQRQEKVKPVIENCKSCKESGGTCNGECKTECKNKCEVYKKFIEDCKGGDGTAGSSWVKRWDQIYKRYSKYIEDAKRNRKAGTKNCGPSSTTNAAENKCVQSDIDSFFKHLIDIGLTTPSSYLSIVLDDNICGADKAPWTTYTTYTTTEKCNKETDKSKLQQCNTAVVVNVPSPLGNTPHGYKYACQCKIPTNEETCDDRKEYMNQWSCGSARTMKRGYKNDNYELCKYNGVDVKPTTVRSNSSKLDDKDVTFFNLFEQWNKEIQYQIEQYMTNTKISCNNEKNVLSRVSDEAAQPKFSDNERDRNSITHEDKNCKEKCKCYSLWIEKINDQWDKQKDNYNKFQRKQIYDANKGSQNKKVVSLSNFLFFSCWEEYIQKYFNGDWSKIKNIGSDTFEFLIKKCGNDSGDGETIFSEKLNNAEKKCKENESTNNKMKSSETSCDCSEPIYIRGCQPKIYDGKIFPGKGGEKQWICKDTIIHGDTNGACIPPRTQNLCVGELWDKRYGGRSNIKNDTKESLKQKIKNAIQKETELLYEYHDKGTAIISRNPMKGQKEKEEKNNDSNGLPKGFCHAVQRSFIDYKNMILGTSVNIYEYIGKLQEDIKKIIEKGTTKQNGKTVGSGAENVNAWWKGIEGEMWDAVRCAITKINKKQKKNGTFSIDECGIFPPTGNDEDQSVSWFKEWSEQFCIERLQYEKNIRDACTNNGQGDKIQGDCKRKCEEYKKYISEKKQEWDKQKTKYENKYVGKSASDLLKENYPECISANFDFIFNDNIEYKTYYPYGDYSSICSCEQVKYYEYNNAEKKNNKSLCHEKGNDRTWSKKYIKKLENGRTLEGVYVPPRRQQLCLYELFPIIIKNKNDITNAKKELLETLQIVAEREAYYLWKQYHAHNDTTYLAHKKACCAIRGSFYDLEDIIKGNDLVHDEYTKYIDSKLNEIFDSSNKNDIETKRARTDWWENEAIAVPNITGANKSDPKTIRQLVWDAMQSGVRKAIDEEKEKKKPNENFPPCMGVQHIGIAKPQFIRWLEEWTNEFCEKYTKYFEDMKSNCNLRKGADDCDDNSNIECKKACANYTNWLNPKRIEWNGMSNYYNKIYRKSNKESEDGKDYSMIMEPTVIDYLNKRCNGEINGNYICCSCKNIGENSTSGTVNKKLQKKETQCEDNKGPLDLMNKVLNKMDPKYSEHKMKCTEVYLEHVEEQLKEIDNAIKDYKLYPLD
notes: not shown: V5 and His tag at the C-terminal (modified pAcGP67-A)
B2: DBL1-ID2b (FCR3, Baculo) (other)
chain: HSDSGKYDPCEKKLPPYDDNDQWKCQQNSSDGSGKPENICVPPRRERLCTYNLENLKFDKIRDNNAFLADVLLTARNEGEKIVQNHPDTNSSNVCNALERSFADLADIIRGTDQWKGTNSNLEKNLKQMFAKIRENDKVLQDKYPKDQKYTKLREAWWNANRQKVWEVITCGARSNDLLIKRGWRTSGKSDRKKNFELCRKCGHYEKEVPTKLDYVPQFLRWLTEWIEDFYREKQNLIDDMERHREECTREDHKSKEGTSYCSTCKDKCKKYCECVKKWKTEWENQENKYKDLYEQNKNKTSQKNTSRYDDYVKDFFEKLEANYSSLENYIKGDPYFAEYATKLSFILNPSDANNPSGETANHNDEACNCNESGISSVGQAQTSGPSSNKTCITHSSIKTNKKKECKDVKLGVRENDKDLKICVIEDTSLSGVDNCCCQDLLGILQENCSDNKRGSSSNDSCDNKNQDECQKKLEKVFASLTNGYKCDKCKSGTSRSKKKWIWKKSSGNEEGLQEEYANTIGLPPRTQSLYLGNLPKLENVCEDVKDINFDTKEKFLAGCLIVSFHEGKNLKKRYPQNKNSGNKENLCKALEYSFADYGDLIKGTSIWDNEYTKDLELNLQNNFGKLFGKYIKKNNTAEQDTSYSSLDELRESWWNTNKKYIWTAMKHGAEMNITTCNADGSVTGSGSSCDDIPTIDLIPQYLRFLQEWVENFCEQRQAKVKDVITNCKSCKESGNKCKTECKTKCKDECEKYKKFIEACGTAGGGIGTAGSPWSKRWDQIYKRYSKHIEDAKRNRKAGTKNCGTSSTTNAAASTDENKCVQSDIDSFFKHLIDIGLTTPSSYLSNVLDDNICGADKAPWTTYTTYTTTEKCNKERDKSKSQSSDTLVVVNVPSPLGNTPYRYKYACQCKIPTNEETCDDRKEYMNQWSCGSARTMKRGYKNDNYELCKYNGVDVKPTTVRSNSSKLDGNDVTFFNLFEQWNKEIQYQIEQYMTNANISCIDEKEVLDSVSDEGTPKVRGGYEDGRNNNTDQGTNCKEKCKCYKLWIEKINDQWGKQKDNYNKFRSKQIYDANKGSQNKKVVSLSNFLFFSCWEEYIQKYFNGDWSKIKNIGSDTFEFLIKKCGNNSAHGEEIFNEKLKNAEKKCKENESTDTNINK
notes: Range derived by me from the FCR3 DBL1X forward primer (HSDSGK) and the FCR3 ID2b reverse primer (TDTNINK); also called DBL1X-ID2b; not shown: V5 and His tag at the C-terminal (modified pAcGP67-A)
B3: ID1-DBL4ε (3D7, Baculo) (other)
chain: LSFILNSSDANNPSEKIQKNNDEVCNCNESGIASVEQEQISDPSSNKTCITHSSIKANKKKVCKHVKLGVRENDKDLRVCVIEHTSLSGVENCCCQDFLRILQENCSDNKSGSSSNGSCNNKNQEACEKNLEKVLASLTNCYKCDKCKSEQSKKNNKNWIWKKSSGKEGGLQKEYANTIGLPPRTQSLCLVVCLDEKGKKTQELKNIRTNSELLKEWIIAAFHEGKNLKPSHEKKNDDNGKKLCKALEYSFADYGDLIKGTSIWDNEYTKDLELNLQKIFGKLFRKYIKKNNTAEQDTSYSSLDELRESWWNTNKKYIWLAMKHGAGMNSTTCCGDGSVTGSGSSCDDIPTIDLIPQYLRFLQEWVEHFCKQRQEKVKPVIENCKSCKESGGTCNGECKTECKNKCEVYKKFIEDCKGGDGTAGSSWVKRWDQIYKRYSKYIEDAKRNRKAGTKNCGPSSTTNAAENKCVQSDIDSFFKHLIDIGLTTPSSYLSIVLDDNICGADKAPWTTYTTYTTTEKCNKETDKSKLQQCNTAVVVNVPSPLGNTPHGYKYACQCKIPTNEETCDDRKEYMNQWSCGSARTMKRGYKNDNYELCKYNGVDVKPTTVRSNSSKLDDKDVTFFNLFEQWNKEIQYQIEQYMTNTKISCNNEKNVLSRVSDEAAQPKFSDNERDRNSITHEDKNCKEKCKCYSLWIEKINDQWDKQKDNYNKFQRKQIYDANKGSQNKKVVSLSNFLFFSCWEEYIQKYFNGDWSKIKNIGSDTFEFLIKKCGNDSGDGETIFSEKLNNAEKKCKENESTNNKMKSSETSCDCSEPIYIRGCQPKIYDGKIFPGKGGEKQWICKDTIIHGDTNGACIPPRTQNLCVGELWDKRYGGRSNIKNDTKESLKQKIKNAIQKETELLYEYHDKGTAIISRNPMKGQKEKEEKNNDSNGLPKGFCHAVQRSFIDYKNMILGTSVNIYEYIGKLQEDIKKIIEKGTTKQNGKTVGSGAENVNAWWKGIEGEMWDAVRCAITKINKKQKKNGTFSIDECGIFPPTGNDEDQSVSWFKEWSEQFCIERLQYEKNIRDACTNNGQGDKIQGDCKRKCEEYKKYISEKKQEWDKQKTKYENKYVGKSASDLLKENYPECISANFDFIFNDNIEYKTYYPYGDYSSICSCEQVKYYEYNNAEKKNNKSLCHEKGNDRTWSKKYIKKLENGRTLEGVYVPPRRQQLCLYELFPIIIKNKNDITNAKKELLETLQIVAEREAYYLWKQYHAHNDTTYLAHKKACCAIRGSFYDLEDIIKGNDLVHDEYTKYIDSKLNEIFDSSNKNDIETKRARTDWWENEAIAVPNITGANKSDPKTIRQLVWDAMQSGVRKAIDEEKEKKKPNENFPPCMGVQHIGIAKPQFIRWLEEWTNEFCEKYTKYFEDMKSNCNLRKGADDCDDNSNIECKKACANYTNWLNPKRIEWNGMSNYYNKIYRKSNKESEDGKDYSMIMEPTVIDYLNKRCNGEINGNYICCSCKNIGENSTSGTVNKKLQKKETQCEDNKGPLDLMNKVLNKMDPKYSEHKMKCTEVYLEHVEEQLKEIDNAIKDYKLYPLD
notes: as for B1
B4: ID1-DBL3ε (3D7, Baculo) (other)
chain: LSFILNSSDANNPSEKIQKNNDEVCNCNESGIASVEQEQISDPSSNKTCITHSSIKANKKKVCKHVKLGVRENDKDLRVCVIEHTSLSGVENCCCQDFLRILQENCSDNKSGSSSNGSCNNKNQEACEKNLEKVLASLTNCYKCDKCKSEQSKKNNKNWIWKKSSGKEGGLQKEYANTIGLPPRTQSLCLVVCLDEKGKKTQELKNIRTNSELLKEWIIAAFHEGKNLKPSHEKKNDDNGKKLCKALEYSFADYGDLIKGTSIWDNEYTKDLELNLQKIFGKLFRKYIKKNNTAEQDTSYSSLDELRESWWNTNKKYIWLAMKHGAGMNSTTCCGDGSVTGSGSSCDDIPTIDLIPQYLRFLQEWVEHFCKQRQEKVKPVIENCKSCKESGGTCNGECKTECKNKCEVYKKFIEDCKGGDGTAGSSWVKRWDQIYKRYSKYIEDAKRNRKAGTKNCGPSSTTNAAENKCVQSDIDSFFKHLIDIGLTTPSSYLSIVLDDNICGADKAPWTTYTTYTTTEKCNKETDKSKLQQCNTAVVVNVPSPLGNTPHGYKYACQCKIPTNEETCDDRKEYMNQWSCGSARTMKRGYKNDNYELCKYNGVDVKPTTVRSNSSKLDDKDVTFFNLFEQWNKEIQYQIEQYMTNTKISCNNEKNVLSRVSDEAAQPKFSDNERDRNSITHEDKNCKEKCKCYSLWIEKINDQWDKQKDNYNKFQRKQIYDANKGSQNKKVVSLSNFLFFSCWEEYIQKYFNGDWSKIKNIGSDTFEFLIKKCGNDSGDGETIFSEKLNNAEKKCKENESTNNKMKSSETSCDCSEPIYIRGCQPKIYDGKIFPGKGGEKQWICKDTIIHGDTNGACIPPRTQNLCVGELWDKRYGGRSNIKNDTKESLKQKIKNAIQKETELLYEYHDKGTAIISRNPMKGQKEKEEKNNDSNGLPKGFCHAVQRSFIDYKNMILGTSVNIYEYIGKLQEDIKKIIEKGTTKQNGKTVGSGAENVNAWWKGIEGEMWDAVRCAITKINKKQKKNGTFSIDECGIFPPTGNDEDQSVSWFKEWSEQFCIERLQYEKNIRDACTNNGQGDKIQGDCKRKCEEYKKYISEKKQEWDKQKTKYENKYVGKSASDLLKENYPECISANFDFIFNDNIEYKTYYPYGDYSSICSCEQVKYYEYNNAE
notes: as for B1

target: CSPG (bovine) (D8428, Sigma) (bovine) (UniProt P21793); assay: quartz crystal microbalance (Attana A100), CSPG coated, 1:1 fit
Sequence (P21793 31-360): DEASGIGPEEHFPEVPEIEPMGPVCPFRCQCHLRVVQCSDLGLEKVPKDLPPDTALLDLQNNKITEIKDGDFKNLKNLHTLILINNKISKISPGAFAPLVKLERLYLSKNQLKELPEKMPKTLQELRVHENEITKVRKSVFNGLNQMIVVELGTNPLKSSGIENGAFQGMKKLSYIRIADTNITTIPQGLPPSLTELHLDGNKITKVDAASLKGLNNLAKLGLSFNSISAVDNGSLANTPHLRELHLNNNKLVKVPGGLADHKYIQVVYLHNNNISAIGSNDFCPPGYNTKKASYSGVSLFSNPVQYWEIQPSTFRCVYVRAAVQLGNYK

Molecule	Kd [nM]
ID1-DBL3ε (FCR3, Baculo)	0.3
DBL2X-DBL4ε (FCR3, Baculo)	2.4
ID1-DBL4ε (FCR3, Baculo)	8.6

target: T1, CSPG (bovine) (D8428, Sigma) (bovine, UniProt P21793 31-360, carries chondroitin sulfate A (CSA) glycosaminoglycan chain(s); the filing attributes the binding of VAR2CSA to this glycan); assay: as above
T1 construct: also called chondroitin sulfate proteoglycan; CSA proteoglycan
T1 sequence (P21793 31-360): as above

Molecule	Kd [nM]
B1	1.2
B2	1.5
B3	9.4
B4	8.5
